{"source": "patent US20090022717A1", "about": "(CHEMOCENTRYX, published 2009)", "binders": {"B1": {"name": "monoclonal antibody 6E10 (antibody, V domains shown)", "VH": "EVKLDETGGGLVQPGRPMKLSCVASGFTFSDYWMNWVRQSPEKGLEWVGQIRNKPYNYETYYSDSVKGRFTISRDDSKSSVYLQMNNLRTEDTGIYYCTSLRYWGQGTLVTVSA", "VL": "DIVMTQSPSSLTVTAGEKVTMSCKSSHSLLNSGIQKNFLTWYQQKPGQPPKVLIYWAFTRESGVPERFTGSGSGTDFTLTISSVQAEDLAVYYCQSDYTYPFTFGSGTKLEIKR", "notes": "Mouse hybridoma monoclonal raised by gene gun immunisation with CXCR7 cDNA"}, "B2": {"name": "monoclonal antibody 11G8 (antibody, V domains shown)", "VH": "EVKLVESGGDLVQPGGSLKLSCATSGFTFSDYYMFWVRQTPEKRLEWVAYITNGGDRSYYSDTVTGRFIISRDNAKNTLYLQMSRLKSEDTAMYYCARQGNWAAWFVYWGQGTLVTVSA", "VL": "DVLMTQTPLSLPVSLGDQASISCRSSHYIVHSDGNTYLEWYLQKPGQSPKLLIYKVSNRFSGVPDRFSGSGSGTDFTLKISRVEAEDLGIYYCFQGSHVPLTFGAGTKLELKR", "notes": "as for B1"}}, "key": {"monoclonal antibody 6E10": {"target": "B1", "assay": "peptide competition of antibody staining of CXCR7-expressing cells, FACS", "method": "(§1) We have established that both 11G8 and 6E10 antibodies recognize CXCR7 receptor expressed on the surface of cells by FACS. This is represented as an increase in florescent signal (filled) over background (open line) along the X axis of FACS plot (FIG. 2). To interrogate which amino acid residues 11G8 and 6E10 recognize and bind to, a number of short peptides (0.5-5 μg) derived from the CXCR7 sequence were pre-incubated with either antibody (0.5-5 μg) in 100 μl PBS. This mixture was then incubated with 500,000 cells expressing CXCR7 for 15 minutes at room temperature. If the antibody recognized the sequence encoded by the peptide, then the peptide would effectively compete antibody away from binding to the cell associated receptor resulting in a subsequent reduction in florescence on a FACS plot. […] These readouts are exemplified in FIG. 2 with “no peptide” representing […] antibody staining, “peptide 2.2.1” representing peptide competition, and “peptide 2.3.4” representing no peptide competition. Through slight alternations of the peptide sequence in this assay, the minimal peptide sequence necessary for antibody recognition was discerned. FIG. 3 illustrates a summary of peptides that competed with either antibody 11G8 or 6E10."}, "monoclonal antibody 11G8 [1]": {"target": "B2", "assay": "peptide competition of antibody staining of CXCR7-expressing cells, FACS", "method": "as §1"}, "human CXCR7": {"target": "T1, human CXCR7 (human, UniProt P25106 1-362)", "T1 construct": "also called RDC1; CCX-CKR2", "T1 sequence (P25106 whole entry)": "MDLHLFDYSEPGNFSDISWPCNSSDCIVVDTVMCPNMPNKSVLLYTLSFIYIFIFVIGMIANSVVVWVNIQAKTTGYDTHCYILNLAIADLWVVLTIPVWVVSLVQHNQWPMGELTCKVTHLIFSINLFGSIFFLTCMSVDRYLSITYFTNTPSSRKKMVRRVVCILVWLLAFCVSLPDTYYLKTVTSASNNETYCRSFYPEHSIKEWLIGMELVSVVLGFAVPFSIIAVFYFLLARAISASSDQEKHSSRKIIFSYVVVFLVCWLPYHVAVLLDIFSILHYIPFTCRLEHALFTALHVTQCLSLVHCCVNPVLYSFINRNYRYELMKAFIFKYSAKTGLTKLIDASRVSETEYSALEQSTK", "assay": "flow cytometry on CXCR7 transfectants (HEK 293) and on HeLa and MCF-7 cells"}, "CXCR2": {"target": "T2, CXCR2 (UniProt P25025 1-360, limits assumed)", "T2 construct": "whole, on cells", "T2 sequence (looked up)": "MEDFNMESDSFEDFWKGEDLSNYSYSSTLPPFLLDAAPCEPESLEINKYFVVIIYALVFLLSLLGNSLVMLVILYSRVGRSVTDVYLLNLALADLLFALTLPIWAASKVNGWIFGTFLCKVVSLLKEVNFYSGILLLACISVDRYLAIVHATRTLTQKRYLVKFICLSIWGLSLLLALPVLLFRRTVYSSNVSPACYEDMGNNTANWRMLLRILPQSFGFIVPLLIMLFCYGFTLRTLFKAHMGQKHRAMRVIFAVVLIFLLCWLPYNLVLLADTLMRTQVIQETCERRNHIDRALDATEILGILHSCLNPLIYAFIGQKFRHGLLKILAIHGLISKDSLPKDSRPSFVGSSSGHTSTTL", "assay": "flow cytometry on transfected HEK 293 cells"}, "mouse CXCR7": {"target": "T3, mouse CXCR7 (mouse, UniProt P56485 1-362)", "T3 construct": "whole, on cells; Endogenous on the mouse mammary tumor line 4T1 and on Lewis lung carcinoma cells; also E13 fetal mouse sections; also called mouse homolog of CXCR7", "T3 sequence (P56485 whole entry)": "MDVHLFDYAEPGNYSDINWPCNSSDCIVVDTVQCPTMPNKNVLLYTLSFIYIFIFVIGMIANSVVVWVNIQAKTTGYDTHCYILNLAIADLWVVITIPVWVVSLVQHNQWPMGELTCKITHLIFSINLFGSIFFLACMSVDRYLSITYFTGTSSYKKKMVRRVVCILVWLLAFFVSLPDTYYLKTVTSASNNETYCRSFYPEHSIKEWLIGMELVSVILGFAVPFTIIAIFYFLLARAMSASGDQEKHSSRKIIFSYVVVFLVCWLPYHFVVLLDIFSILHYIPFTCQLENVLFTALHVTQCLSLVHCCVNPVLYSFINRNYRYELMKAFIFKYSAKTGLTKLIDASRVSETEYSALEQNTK", "assay": "detection on mouse 4T1 mammary tumor cells and Lewis lung carcinoma cells"}, "monoclonal antibody 11G8 [2]": {"target": "B2", "assay": "peptide pre-incubated with antibody, then FACS staining of CXCR7-expressing cells (FIG. 2, 11G8 on 435-CXCR7 cells)", "method": "as §1"}}}
{"binder": "FSDISWPCNSSDCIVVD (also called Peptide 2)", "note": "[SEQ ID NO 2]", "values": [{"measurement": "binding result", "setting": "monoclonal antibody 6E10", "value": "binds"}, {"measurement": "binding result", "setting": "monoclonal antibody 11G8 [1]", "value": "binds"}]}
{"binder": "WPCNSSDCIVV (also called Peptide 2.2.5)", "note": "[SEQ ID NO 16]", "values": [{"measurement": "binding result", "setting": "monoclonal antibody 6E10", "value": "binds"}]}
{"binder": "SWPCNSSDCIVV (also called Peptide 2.1.2)", "note": "[SEQ ID NO 9]", "values": [{"measurement": "binding result", "setting": "monoclonal antibody 6E10", "value": "binds"}]}
{"binder": "NWPCNSSDCIVV (also called Peptide 2.2.6)", "note": "[SEQ ID NO 17]", "values": [{"measurement": "binding result", "setting": "monoclonal antibody 6E10", "value": "binds"}]}
{"binder": "B1", "values": [{"measurement": "binding result", "setting": "human CXCR7", "value": "binds"}, {"measurement": "binding result", "setting": "CXCR2", "value": "no binding"}, {"measurement": "binding result", "setting": "mouse CXCR7", "value": "binds"}]}
{"binder": "B2", "values": [{"measurement": "binding result", "setting": "human CXCR7", "value": "binds"}, {"measurement": "binding result", "setting": "CXCR2", "value": "no binding"}, {"measurement": "binding result", "setting": "mouse CXCR7", "value": "binds"}]}
{"binder": "DYSEPGNFSDISWPC (also called Peptide 9C4)", "note": "[SEQ ID NO 11]", "values": [{"measurement": "binding result", "setting": "monoclonal antibody 11G8 [1]", "value": "binds"}]}
{"binder": "FSDISWPC (also called Peptide 2.2.1)", "note": "[SEQ ID NO 12]", "values": [{"measurement": "binding result", "setting": "monoclonal antibody 11G8 [1]", "value": "binds"}]}
{"binder": "YSDINWPC (also called Peptide 2.2.3)", "note": "[SEQ ID NO 14]", "values": [{"measurement": "binding result", "setting": "monoclonal antibody 11G8 [1]", "value": "binds"}]}
{"binder": "NFSDISWP (also called Peptide 2.3.1)", "note": "[SEQ ID NO 18]", "values": [{"measurement": "binding result", "setting": "monoclonal antibody 11G8 [1]", "value": "binds"}]}
{"binder": "DISWPCNSSDCI (also called Peptide 2.1.1)", "note": "[SEQ ID NO 8]", "values": [{"measurement": "binding result", "setting": "monoclonal antibody 6E10", "value": "binds"}]}
{"binder": "PCNSSDCIV", "note": "[peptide 2.3.4]", "values": [{"measurement": "binding result", "setting": "monoclonal antibody 11G8 [2]", "value": "no binding"}]}
